Source: PMC3966047, “Analysis of the minimal specificity of caspase-2 and identification of Ac-VDTTD-AFC as a caspase-2-selective peptide substrate” (Bioscience Reports, 2014)
Each block holds one molecule with its values, some of them ahead of it. The star is where a group is joined. AFC = O=c1cc(C(F)(F)F)c2ccc(N*)cc2o1

Legend:
caspase-2 [1] = conditions: cited from earlier work
Source text: It seems likely that identification of caspase-2 substrates may provide valuable clues to its biological role. […] Apoptotic signalling by caspase-2 has been proposed to result from its processing of the pro-apoptotic Bcl-2 relative Bid. […] Runx1 plays a critical role in haematopoiesis, and Runx1 translocations or other mutations occur frequently in myeloid leukaemias, and less commonly in other cancer types.

[2] = tested on: auto-activating caspase-2 in HEK-293T cell lysate; test: Fluorogenic peptide cleavage by lysates of HEK-293T cells expressing auto-activating caspase-2; format: biochemical, human embryonic kidney cells; conditions: HEK-293T lysates with auto-activating caspase-2 or -3, 0.1 mM substrate
Protocol: (§1) Caspases were pre-activated for 30 min at 37°C in their preferred buffers, then diluted and mixed with fluorogenic peptide substrates. Fluorescence (excitation 410 nm, emission 500 nm) was measured every 10–60 s for up to 1 h using a FluoStar Galaxy (BMG Labtech). The maximal slope of each curve was calculated. A standard curve, using free AFC (Sigma), was used to convert fluorescence emissions into concentration of AFC produced during the cleavage reactions. Prism 5.0 software was used to determine kcat and KM from three to four independent experiments, as previously described. Ac-DEVD-AFC and Ac-VDVAD-AFC were purchased from Enzo Life Sciences. The custom substrates Ac-VDTTD-AFC and Ac-VDVPD-AFC were synthesized by 21st Century Biochemicals. 150 nM Bid or 100 nM Runx1 proteins were incubated with specified concentrations of caspases in their preferred buffers for 1 h (Runx1) or 0.5 h (Bid variants) at 37°C, then subjected to SDS–PAGE and immunoblotting with anti-Bid (#AF860 R&D Systems) or anti-His6 antibodies (#A00186 GenScript). Secondary antibodies were anti-mouse-HRP (#A9044, Sigma) or anti-goat-HRP (#6300-05, Southern Biotech). The SuperSignal West Dura Substrate (Thermo Scientific) was used to detect signals and quantitation of sub-saturated exposures was performed using a Syngene G:Box and Image Lab 3.0 software (BioRad). Linear regression was used to determine the caspase concentration, which cleaved half of each protein.
(§2) HEK-293T cells [human embryonic kidney cells expressing the large T-antigen of SV40 (simian virus 40)] were cultured, transfected, harvested and lysed as described except that protease inhibitors were not used. Each lysate was mixed with the appropriate fluorogenic substrate (0.1 mM) in caspase buffer, and fluorescence was monitored as outlined above.

[3] = tested on: auto-activating caspase-3 in HEK-293T cell lysate; test: Fluorogenic peptide cleavage by lysates of HEK-293T cells expressing auto-activating caspase-3; format: biochemical, human embryonic kidney cells; conditions: HEK-293T lysate, auto-activating caspase-3, 0.1 mM substrate, rate of fluorescence increase; three independent transfections
Protocol: as §1, §2

caspase-2 [4] = conditions: aldehyde inhibitors; cited from earlier work
Source text: (§3) Research into caspase-2 biology has been hampered by a dearth of selective reagents capable of distinguishing between caspases-2 and -3. Peptides and inhibitors based on the sequence VDVAD are marketed as ‘caspase-2-specific’ but also react strongly with caspase-3.

caspase-3 [5] = target: T1, caspase-3 (Homo sapiens, UniProt P42574); conditions: aldehyde inhibitors; cited from earlier work
T1 construct: made in house; host or cells: E. coli BL21(DE3)pLysS
T1 sequence (P42574 29-175 limits assumed): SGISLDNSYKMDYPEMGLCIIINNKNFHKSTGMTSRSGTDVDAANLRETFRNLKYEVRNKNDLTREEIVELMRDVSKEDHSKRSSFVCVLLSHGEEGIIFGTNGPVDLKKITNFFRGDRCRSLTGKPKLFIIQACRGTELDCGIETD
T1 sequence (P42574 176-277 limits assumed): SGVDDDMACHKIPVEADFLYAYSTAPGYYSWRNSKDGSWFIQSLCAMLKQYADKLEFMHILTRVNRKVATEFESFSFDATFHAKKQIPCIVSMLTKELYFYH
Source text: as §3

caspase-8 [6] = test: Bid protein cleavage by caspase-8 (anti-Bid immunoblot); format: biochemical; conditions: 150 nM Bid protein, 0.5 h, 37°C
Protocol: (§4) Caspases-2, -3 and -8 were purified using NiNTA resin (Qiagen) from BL21(DE3)pLysS bacteria (Novagen/Merck) transformed with pET23a–caspase-2^Δ1−149 [44], pET23a–caspase-3 [54] or pET15b–caspase-8^Δ1−216 plasmids. Induction conditions were: caspase-2, 0.4 mM IPTG (isopropyl β-D-thiogalactoside), 2 h 37°C; caspase-3, 0.2 mM IPTG, 3 h 30°C; caspase-8, 1 mM IPTG, 4 h 25°C. Caspases were active site-titrated using zVAD-fmk (Merck). ArcticExpress DE3 bacteria (Agilent Technologies) were transformed with the pET23a Bid expression plasmids described above, induced for 48 h at 10°C using 1 mM IPTG, then the His6-tagged Bid proteins were purified using NiNTA resin (Qiagen). Recombinant proteins were quantitated using the Bicinchoninic acid protein assay kit (Sigma). […] The concentration of Runx1 proteins was determined by quantitative anti-His6 immunoblotting, using purified AcP35–His6 [56] as a standard.
(§5) Caspases were pre-activated for 30 min at 37°C in their preferred buffers, then diluted and mixed with fluorogenic peptide substrates. Fluorescence (excitation 410 nm, emission 500 nm) was measured every 10–60 s for up to 1 h using a FluoStar Galaxy (BMG Labtech). The maximal slope of each curve was calculated. A standard curve, using free AFC (Sigma), was used to convert fluorescence emissions into concentration of AFC produced during the cleavage reactions. […]

caspase-3 [7] = target: T1, caspase-3; test: Bid protein cleavage by caspase-3 (anti-Bid immunoblot); format: biochemical; conditions: 150 nM Bid protein, 0.5 h, 37°C
Protocol: as §4, §5

caspase-2 [8] = test: Bid protein cleavage by caspase-2 (anti-Bid immunoblot); format: biochemical; conditions: 150 nM Bid protein, 0.5 h, 37°C, preferred buffer, from caspase concentration cleaving half of the substrate
Protocol: as §4, §5

caspase-8 [9] = conditions: subsequent data; cited from earlier work
Source text: It seems likely that identification of caspase-2 substrates may provide valuable clues to its biological role. […] Apoptotic signalling by caspase-2 has been proposed to result from its processing of the pro-apoptotic Bcl-2 relative Bid.

[10] = preferred buffer, anti-Bid immunoblot, from caspase concentration cleaving half of the substrate

Molecule: Cux1: transcription factor Cux1
cleavage by caspase-2 (in words) (caspase-2 [1]): efficiently cleaved

Molecule: Ac-VDVAD-{AFC} [classical caspase-2 substrate, purchased from Enzo Life Sciences, reference compound]
caspase-2 versus caspase-3 selectivity in cell lysates (in words) [2]: cleaved only slightly better by extracts from cells expressing caspase-2 than caspase-3

Molecule: EIF4B: translation initiation factor EIF4B
cleavage by caspase-2 versus other caspases (in words) (caspase-2 [1]; degradomics, lysates): more efficiently cleaved by caspase-2

Molecule: Ac-DEVD-AFC [reference compound]
cleavage by lysates of cells expressing caspase-3 (in words) [3]: extracts from cells expressing active caspase-3 cleaved Ac-DEVD-AFC most efficiently

Molecule: Ac-VDVPD-aldehyde
inhibition of caspase-2 compared with caspase-3 (in words) (caspase-2 [4]): inhibited caspases-2 and -3 with similar potencies | inhibition of caspase-3 compared with caspase-2 (in words) (caspase-3 [5]): inhibited caspases-2 and -3 with similar potencies

processing efficiency by caspase-8 relative to caspase-2 (caspase-8 [6]): about seven | second-order rate constant (estimate of kcat/KM), caspase-8 (caspase-8 [6]; [10]): 22000 M⁻¹ s⁻¹ | second-order rate constant (estimate of kcat/KM), caspase-3 (caspase-3 [7]; [10]): 160 M⁻¹ s⁻¹ | second-order rate constant (estimate of kcat/KM), caspase-2 (caspase-2 [8]): 3200 M⁻¹ s⁻¹
B1: wild-type Bid: Bid protein bearing the native LQTD cleavage site (protein, UniProt P55957 1-195, looked up)
BH3-interacting domain death …: MDCEVNNGSSLRDECITNLLVFGFLQSCSDNSFRRELDALGHELPVLAPQWEGYDELQTDGNRSSHSRLGRIEADSESQEDIIRNIARHLAQVGDSMDRSIPPGLVNGLALQLRNTSRSEEDRNRDLATALEQLLQAYPRDMEKEKTMLVLALLLAKKVASHTPSLLRDVFHTTVNFINQNLRTYVRSLARNGMD
Bid cleavage by caspase-3 (in words) (caspase-3 [7]; immunoblot): barely sensitive to proteolysis by even high concentrations of caspase-3 | Bid cleavage by caspases-2 and -8 (in words) (caspase-2 [1]; initial results): could cleave Bid with similar efficiency | Bid cleavage by caspase-8 compared with caspase-2 (in words) (caspase-8 [9]): the processing by caspase-8 was more efficient
